Experimental data as given in patent US20180256644A1.
Where a chain is given by its changes, count along the chain named. Names may count otherwise.

B1: CD80 variant L70Q/A91G/T110A/T120S/T130A ECD-Fc fusion (Fc fusion)
chain: VIHVTKEVKEVATLSCGHNVSVEELAQTRIYWQKEKKMVLTMMSGDMNIWPEYKNRTIFDITNNLSIVIQALRPSDEGTYECVVLKYEKDGFKREHLAEVTLSVKADFPAPSISDFEIPSSNIRRIICSASGGFPEPHLSWLENGEELNAINTTVSQDPETELYAVSSKLDFNMTTNHSFMCLIKYGHLRVNQTFNWNTTKQEHFPDNAAAEPKSSDKTHTCPPCPAPELLGGPSVFLFPPKPKDTLMISRTPEVTCVVVDVSHEDPEVKFNWYVDGVEVHNAKTKPCEEQYGSTYRCVSVLTVLHQDWLNGKEYKCKVSNKALPAPIEKTISKAKGQPREPQVYTLPPSREEMTKNQVSLTCLVKGFYPSDIAVEWESNGQPENNYKTTPPVLDSDGSFFLYSKLTVDKSRWQQGNVFSCSVMHEALHNHYTQKSLSLSPGK
B2: CD80 variant V20L/L70Q/A91S/T120S/T130A ECD-Fc fusion (Fc fusion)
chain: B1 chain with V20L, G91S, A110T
B3: ICOSL variant ECD-Fc F120S/Y152H/N201S (Fc fusion)
chain: DTQEKEVRAMVGSDVELSCACPEGSRFDLNDVYVYWQTSESKTVVTYHIPQNSSLENVDSRYRNRALMSPAGMLRGDFSLRLFNVTPQDEQKFHCLVLSQSLGFQEVLSVEVTLHVAANSSVPVVSAPHSPSQDELTFTCTSINGYPRPNVHWINKTDNSLLDQALQNDTVFLNMRGLYDVVSVLRIARTPSVNIGCCIESVLLQQNLTVGSQTGNDIGERDKITENPVSTGEKNAATAAAEPKSSDKTHTCPPCPAPELLGGPSVFLFPPKPKDTLMISRTPEVTCVVVDVSHEDPEVKFNWYVDGVEVHNAKTKPCEEQYGSTYRCVSVLTVLHQDWLNGKEYKCKVSNKALPAPIEKTISKAKGQPREPQVYTLPPSREEMTKNQVSLTCLVKGFYPSDIAVEWESNGQPENNYKTTPPVLDSDGSFFLYSKLTVDKSRWQQGNVFSCSVMHEALHNHYTQKSLSLSPGK

Legend:
[1] = molecular target: human CD28 (full-length, expressed on transfected Expi293F cells) (human) (UniProt P10747); test: flow cytometry, transfected Expi293 cells
[2] = molecular target: human CD28 (full-length, expressed on transfected Expi293F cells) (human) (UniProt P10747); test: flow cytometry; ratio to WT parental stack
[3] = molecular target: human PD-L1 (full-length, expressed on transfected Expi293F cells) (human) (UniProt Q9NZQ7); test: flow cytometry, transfected Expi293 cells
[4] = molecular target: human PD-L1, full-length, expressed on Expi293F cells (human) (UniProt Q9NZQ7); test: flow cytometry, Expi293 cells expressing human PD-L1
[5] = molecular target: human PD-L1 (full-length, expressed on transfected Expi293F cells) (human) (UniProt Q9NZQ7); test: flow cytometry; ratio to WT parental stack
[6] = molecular target: human CTLA4, full-length, expressed on Expi293F cells (human) (UniProt P16410); test: flow cytometry, Expi293 cells expressing human CTLA-4
Sequence of UniProt P16410 (P16410 36-223): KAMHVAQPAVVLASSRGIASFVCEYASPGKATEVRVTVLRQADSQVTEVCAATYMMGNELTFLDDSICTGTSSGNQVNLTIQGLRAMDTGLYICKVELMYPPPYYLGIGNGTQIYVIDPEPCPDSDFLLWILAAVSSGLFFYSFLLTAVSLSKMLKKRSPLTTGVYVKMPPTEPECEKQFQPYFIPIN

[7] = molecular target: human CD28 (full-length, expressed on transfected Expi293F cells) (human) (UniProt P10747); test: flow cytometry; ratio to WT ICOSL ECD-Fc

| Molecule | MFI [1] | MFI [3] | further results |
| --- | --- | --- | --- |
| CD80 I67T/L70Q/A91G/T120S / CD80 E88D/K89R/D90K/A91G/F92Y/K93R stacked IgV-Fc (Fc fusion) | 938 MFI | – | WT parental MFI ratio [2]: 0.57 |
| CD80 WT / CD80 WT stacked IgV-Fc (Fc fusion) | 1630 MFI | – | – |
| CD80 WT / CD86 WT stacked IgV-Fc (Fc fusion) | – | 2080 MFI | – |
| CD80 WT / ICOSL WT stacked IgV-Fc (Fc fusion) | 1230 MFI | 2660 MFI | – |
| CD80 variant A91G/S103P ECD-Fc fusion | – | – | MFI [4]: 9 MFI; MFI parental ratio (fold of WT CD80) [4]: 0.13 |
| CD86 Q35H/H90L/Q102H / CD80 A12T/H18L/N43V/F59L/E77K/P109S/I118T stacked IgV-Fc (Fc fusion) | – | 2110 MFI | WT parental MFI ratio [5]: 1.39 |
| ICOSL WT / CD80 WT stacked IgV-Fc (Fc fusion) | – | 2970 MFI | – |
| ICOSL WT / Nkp30 WT stacked IgV-Fc (Fc fusion) | 7920 MFI | – | – |
| NKp30 WT / CD86 WT stacked IgV-Fc (Fc fusion) | 1690 MFI | – | – |
| NKp30 WT / ICOSL WT stacked IgV-Fc (Fc fusion) | 6340 MFI | – | – |
| B1 | – | – | MFI [6]: 14 MFI; MFI parental ratio (fold of WT CD80) [6]: 0.07 |
| B2 | – | – | MFI [4]: 9 MFI; MFI parental ratio (fold of WT CD80) [4]: 0.13 |
| B3 | – | – | MFI parental ratio [7]: 0.89 |
